Experimental data as given in patent US20250382376A1 (FUDAN UNIVERSITY, published 2025).

T1: extracellular domain of human CD73 protein, C-terminus polyhistidine-tagged (human, UniProt P21589 27-547)
T1 construct: also the immunogen; also called CD73-ECD; human CD73-ECD
T1 sequence: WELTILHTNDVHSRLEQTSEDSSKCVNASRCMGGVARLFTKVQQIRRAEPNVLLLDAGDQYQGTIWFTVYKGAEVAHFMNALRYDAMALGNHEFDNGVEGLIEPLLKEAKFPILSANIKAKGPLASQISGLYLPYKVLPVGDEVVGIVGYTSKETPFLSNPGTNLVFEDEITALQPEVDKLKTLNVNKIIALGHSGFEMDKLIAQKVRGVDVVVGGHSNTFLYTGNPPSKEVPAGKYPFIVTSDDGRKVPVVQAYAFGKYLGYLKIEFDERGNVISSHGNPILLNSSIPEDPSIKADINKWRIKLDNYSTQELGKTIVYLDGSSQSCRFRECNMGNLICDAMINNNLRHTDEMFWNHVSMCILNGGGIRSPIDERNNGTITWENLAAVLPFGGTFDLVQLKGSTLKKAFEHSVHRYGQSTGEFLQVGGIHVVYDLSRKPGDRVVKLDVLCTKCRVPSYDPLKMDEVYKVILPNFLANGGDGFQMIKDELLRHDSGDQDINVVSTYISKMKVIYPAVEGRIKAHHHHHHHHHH

T2: CD73 on the surface of human cells (human, UniProt P21589 27-549)
T2 construct: whole, on cells; The cell line of each value is named under assay or readout; also called CD73 on the surface of tumor cells; CD73 enzyme on the surface of MDA-MB-231 cells
T2 sequence (looked up): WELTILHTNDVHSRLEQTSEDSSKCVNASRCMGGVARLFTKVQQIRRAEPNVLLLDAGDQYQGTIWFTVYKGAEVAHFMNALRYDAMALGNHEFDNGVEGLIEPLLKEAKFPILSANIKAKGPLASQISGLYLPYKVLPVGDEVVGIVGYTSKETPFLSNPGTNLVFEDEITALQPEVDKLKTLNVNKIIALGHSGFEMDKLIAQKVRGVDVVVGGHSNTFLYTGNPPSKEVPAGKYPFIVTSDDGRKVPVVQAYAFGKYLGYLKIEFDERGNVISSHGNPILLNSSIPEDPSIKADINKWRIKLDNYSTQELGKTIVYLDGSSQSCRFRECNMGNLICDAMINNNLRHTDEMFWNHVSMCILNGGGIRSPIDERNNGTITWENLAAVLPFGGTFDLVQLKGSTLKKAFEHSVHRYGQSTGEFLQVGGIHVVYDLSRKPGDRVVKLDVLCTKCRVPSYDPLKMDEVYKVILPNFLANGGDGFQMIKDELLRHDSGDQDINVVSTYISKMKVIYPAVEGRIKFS

T3: human recombinant CD73 enzyme (CD73 extracellular region) (human, UniProt P21589 27-549)
T3 sequence (looked up): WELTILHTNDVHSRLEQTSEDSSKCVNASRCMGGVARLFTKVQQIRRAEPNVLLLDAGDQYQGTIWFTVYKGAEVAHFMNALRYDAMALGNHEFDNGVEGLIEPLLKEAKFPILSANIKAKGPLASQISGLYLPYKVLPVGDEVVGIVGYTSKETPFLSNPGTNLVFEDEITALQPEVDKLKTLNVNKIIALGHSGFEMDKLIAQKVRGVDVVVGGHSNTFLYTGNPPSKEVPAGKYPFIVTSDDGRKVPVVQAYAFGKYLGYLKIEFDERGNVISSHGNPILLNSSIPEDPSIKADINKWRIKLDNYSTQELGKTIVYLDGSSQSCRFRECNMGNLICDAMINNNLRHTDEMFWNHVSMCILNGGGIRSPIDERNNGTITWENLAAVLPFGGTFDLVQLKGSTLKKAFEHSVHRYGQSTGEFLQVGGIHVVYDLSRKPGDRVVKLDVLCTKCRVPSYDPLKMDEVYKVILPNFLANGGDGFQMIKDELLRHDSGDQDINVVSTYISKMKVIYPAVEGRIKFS


Experiments:
[1] = target: T1, extracellular domain of human CD73 …; test: ELISA on CD73-ECD, 100 µL supernatant of antibody expression, second of two readings; PBS 0.19, 0.18
[2] = target: T1, extracellular domain of human CD73 …; test: ELISA on CD73-ECD, 0.8 µL supernatant of antibody expression, second of two readings; PBS 0.19, 0.18
Procedure: (§1) The CD73 protein extracellular region (CD73-ECD) was diluted to 1 μg/mL using the coating solution, and an ELISA plate was coated at 100 μL/well at 4° C. overnight. Excess antigens were washed away, and the plate was blocked with 1% BSA at room temperature for 2 hours. Then, 5-fold gradient dilutions of each monoclonal antibody were added at 100 μL/well and incubated at room temperature for 1 hour. Unbound antibodies were washed away, and an appropriate concentration of Staphylococcal protein A labeled with horseradish peroxidase was added at 100 μL/well and incubated at room temperature for 0.5 hours. Unbound secondary antibodies were washed away, and TMB color development solution was added to react for about 15 minutes. 1M HCL was added at 50 µL/well to terminate the color development reaction, and then the absorbance was measured at 450 nm and the data was analyzed.
(§2) CD73 antigen ELISA binding affinity test was performed according to the method of Example 3.

[3] = target: T1, extracellular domain of human CD73 …; test: ELISA on CD73-ECD, 20 µL supernatant of antibody expression, second of two readings; PBS 0.19, 0.18
Procedure: as §1, §2

[4] = target: T1, extracellular domain of human CD73 …; test: ELISA on CD73-ECD, 0.8 µL supernatant of antibody expression, first of two readings; PBS 0.19, 0.18
Procedure: as §1, §2

[5] = target: T1, extracellular domain of human CD73 …; test: ELISA on CD73-ECD, 20 µL supernatant of antibody expression, first of two readings; PBS 0.19, 0.18
Procedure: as §1, §2

[6] = target: T1, extracellular domain of human CD73 …; test: ELISA on CD73-ECD, 4 µL supernatant of antibody expression, second of two readings; PBS 0.19, 0.18
[7] = target: T1, extracellular domain of human CD73 …; test: ELISA on CD73-ECD, 4 µL supernatant of antibody expression, first of two readings; PBS 0.19, 0.18
Procedure: as §1, §2

[8] = target: T1, extracellular domain of human CD73 …; test: ELISA on CD73-ECD, 100 µL supernatant of antibody expression, first of two readings; PBS 0.19, 0.18
Procedure: as §1, §2

[9] = target: T2, CD73 on the surface of human cells; test: Flow cytometry on NCI-H1299 cells
Procedure: 100 μL of the test antibodies diluted from 10 μg/mL to 0.016 μg/mL in a 5-fold gradient were used as the primary antibodies, and were mixed with 1×10⁵ tumor cells suspended in 100 μL RPMI-1640 serum-free medium to make a final concentration of 5 μg/mL diluted to 0.008 μg/mL, and then incubated at 4° C. for 1 h. The cells were washed twice with PBS to remove unbound primary antibodies, and then the target cells were incubated with 200 μLPE-labeled secondary antibody at 2 μg/mL at 4° C. for 30 min. The cells were washed twice with PBS to remove unbound secondary antibodies, and finally the cells were resuspended in 200 μL PBS. The binding affinity of the test antibodies to CD73 on the surface of the corresponding cells was measured by flow cytometry.
The binding affinity of the humanized antibodies to NCI-H1299 cells was detected according to the method for determining the binding affinity of CD73 on the surface of tumor cells in Example 5.

[10] = target: T1, extracellular domain of human CD73 …; test: ForteBio Octet (the filing calls it SPR), by the method of Example 2 according to the text; sheet prints 'Loading Sample ID: FDYKSD-02-His'; traces labelled 50, 25, 12.5, 6.25, 3.13
[11] = target: T2, CD73 on the surface of human cells; test: flow cytometry on NCI-H1299 cells
[12] = target: T1, extracellular domain of human CD73 …; test: SPR as the filing names it (method of Example 2, ForteBio OCTET R2)
Procedure: Surface plasmon resonance (SPR) assay: Protein A sensor was used to immobilize the antibodies, with an immobilization height of about 1.5 nM. […] Affinity detection: equilibrium for 60 s, binding for 180 s, dissociation for 180 s, at a detection temperature of 25° C. Kinetic characterization analysis was performed using the ForteBio OCTET R2 system.
The affinity of the humanized antibody to the antigen was detected by the surface plasmon resonance (SPR) assay method in Example 2.

[13] = target: T3, human recombinant CD73 enzyme (CD73 …); test: cell-based or functional assay

ELISA reading (not named on the sheet) [1] | ELISA reading (not named on the sheet) [2] | ELISA reading (not named on the sheet) [3] | ELISA reading (not named on the sheet) [4] | ELISA reading (not named on the sheet) [5] | ELISA reading (not named on the sheet) [6] | ELISA reading (not named on the sheet) [7] | ELISA reading (not named on the sheet) [8] | Max MFI [9] | koff [10] | kon [10] | EC50 [11] | Kd [12] | IC50, inhibition of the catalytic function of recombinant human CD73 enzyme [13] | Binder
4.28 | 4.08 | 4.29 | 4.17 | 4.17 | 4.16 | 4.23 | 4.32 |  |  |  |  |  |  | 5-E11 derived antibody 5-E11QS (VHH, not shown: a dimerising Fc or GST) VHH: ALQLVESGGGLVQPGGSLRLSCEVSGFTLDYYNIGWFRQAPGKEREGVSCSSQSGGSTYYADSVKGRFTISRDNAKNTVYLQMNSLKPEDTGVYYCAAYRGWHPSLDARVYDYWGQGTEVTVSS
 |  |  |  |  |  |  |  | 103000 MFI | 0.00091 s⁻¹ | 702000 M⁻¹ s⁻¹ | 0.02 µg/mL | 1.3 nM | 0.0456 µg/mL | humanized antibody 3D7-HM7-FC1 (Fc fusion) heavy: QRQLVESGGGLVQPGGSLRLSCAASGFLLDYYVIGWFRQAPGKEREGVSCISGSDRSTYYADSVKGRFTISRDNSKNTVYLQMGSLRAEDTAVYYCAADPSPVTVQAMCLPRFPVPYWGQGTLVTVSSEPKSSDKTHTCPPCPAPEFEGGPSVFLFPPKPKDTLMISRTPEVTCVVVDVSHEDPEVKFNWYVDGVEVHNAKTKPREEQYNSTYRVVSVLTVLHQDWLNGKEYKCKVSNKALPASIEKTISKAKGQPREPQVYTLPPSRDELTKNQVSLTCLVKGFYPSDIAVEWESNGQPENNYKTTPPVLDSDGSFFLYSKLTVDKSRWQQGNVFSCSVMHEALHNHYTQKSLSLSPGK

Further lines, the binder ahead of its results:

Binder | ELISA reading (not named on the sheet) [1] | ELISA reading (not named on the sheet) [2] | ELISA reading (not named on the sheet) [3] | ELISA reading (not named on the sheet) [4] | ELISA reading (not named on the sheet) [5] | ELISA reading (not named on the sheet) [6] | ELISA reading (not named on the sheet) [7] | ELISA reading (not named on the sheet) [8] | Max MFI [9] | koff [10] | kon [10] | EC50 [11] | Kd [12] | IC50, inhibition of the catalytic function of recombinant human CD73 enzyme [13]
5-E11 derived antibody 5-E11AS (VHH, not shown: a dimerising Fc or GST) VHH: ALQLVESGGGLVQPGGSLRLSCEVSGFTLDYYNIGWFRQAPGKEREGVSCSSASGGSTYYADSVKGRFTISRDNAKNTVYLQMNSLKPEDTGVYYCAAYRGWHPSLDARVYDYWGQGTEVTVSS | 4.27 | 4.08 | 4.33 | 4.22 | 4.24 | 4.22 | 4.25 | 4.28 |  |  |  |  |  | 
5-E11 derived antibody 5-E11GS (VHH, not shown: a dimerising Fc or GST) VHH: ALQLVESGGGLVQPGGSLRLSCEVSGFTLDYYNIGWFRQAPGKEREGVSCSSGSGGSTYYADSVKGRFTISRDNAKNTVYLQMNSLKPEDTGVYYCAAYRGWHPSLDARVYDYWGQGTEVTVSS | 4.22 | 4.11 | 4.3 | 4.16 | 4.15 | 4.17 | 4.22 | 4.24 |  |  |  |  |  | 
humanized antibody 3D7-HM8-FC1 (Fc fusion) heavy: QRQLVESGGGLVQPGGSLRLSCAASGFLLDYYVIGWFRQAPGKEREGVSCISGSDRSTYYADSVKGRFTISRDNSKNTVYLQMSSLRAEDTAVYYCAADPSPVTVQAMCLPRFPVPYWGQGTLVTVSSEPKSSDKTHTCPPCPAPEFEGGPSVFLFPPKPKDTLMISRTPEVTCVVVDVSHEDPEVKFNWYVDGVEVHNAKTKPREEQYNSTYRVVSVLTVLHQDWLNGKEYKCKVSNKALPASIEKTISKAKGQPREPQVYTLPPSRDELTKNQVSLTCLVKGFYPSDIAVEWESNGQPENNYKTTPPVLDSDGSFFLYSKLTVDKSRWQQGNVFSCSVMHEALHNHYTQKSLSLSPGK |  |  |  |  |  |  |  |  | 106000 MFI | 0.000913 s⁻¹ | 779000 M⁻¹ s⁻¹ | 0.043 µg/mL | 1.17 nM | 0.0555 µg/mL
